Data taken from patent US20220204638A1, “Combination Therapies Comprising Daratumumab, Bortezomib, Thalidomide and Dexamethasone and Their Uses” (Janssen Biotech, Inc., priority 2019, published 2022).

Assays:
[1] = system: relapsed and refractory multiple myeloma; test: DARZALEX monotherapy safety, three open-label clinical trials (N=156); assay type: in vivo, human
Text: Serious adverse reactions were reported in 51 (33%) patients.
Table 23 describes Grade 3-4 laboratory abnormalities reported at a rate of ≥10%.

[2] = system: relapsed or refractory multiple myeloma; test: SIRIUS (NCT01985126) open-label DARZALEX monotherapy trial; assay type: in vivo, human
Text: (§1) Treatment continued until unacceptable toxicity or disease progression.
The median patient age was 63.5 years (range: 31 to 84 years), 49% were male and 79% were Caucasian. Patients had received a median of 5 prior lines of therapy. […] Prior therapies included bortezomib (99%), lenalidomide (99%), pomalidomide (63%) and carfilzomib (50%).

[3] = system: relapsed or refractory multiple myeloma; test: GEN501 (NCT00574288) open-label dose escalation monotherapy trial; assay type: in vivo, human
Text: as §1
Seventy-four percent of patients had received prior ASCT. Prior therapies included bortezomib (100%), lenalidomide (95%), pomalidomide (36%) and carfilzomib (19%).

multiple myeloma = test: Clinical trials pooled, monotherapy and combination treatments (N=2,066); assay type: in vivo, human
[4] = Immunogenicity, anti-daratumumab antibodies in clinical trials; assay type: in vivo, human
Text: As with all therapeutic proteins, there is the potential for immunogenicity. The detection of antibody formation is highly dependent on the sensitivity and specificity of the assay. Additionally, the observed incidence of antibody (including neutralizing antibody) positivity in an assay may be influenced by several factors including assay methodology, sample handling, timing of sample collection, concomitant medications, and underlying disease. For these reasons, comparison of the incidence of antibodies to daratumumab in the studies described below with the incidence of antibodies in other studies or to other products may be misleading. […] One patient administered DARZALEX as combination therapy, developed transient neutralizing antibodies against daratumumab. However, this assay has limitations in detecting anti-daratumumab antibodies in the presence of high concentrations of daratumumab; therefore, the incidence of antibody development might not have been reliably determined.

[5] = Clinical pharmacokinetics of daratumumab; assay type: in vivo, human
Text: Daratumumab volume of distribution was 4.7±1.3 L as monotherapy and 4.4±1.5 L as combination therapy following administration of the approved dosage.
Daratumumab clearance decreased with increasing dose and with multiple dosing.
The effect of severe (total bilirubin>3 times ULN and any AST) hepatic impairment on daratumumab pharmacokinetics is unknown.

CD38 on red blood cells = target: T1, CD38 on red blood cells (Homo sapiens, UniProt P28907); test: Interference with Indirect Antiglobulin Test (Indirect Coombs test)
T1 construct: endogenous in cells; host or cells: red blood cells (reagent RBCs used in serological testing)
Text: Daratumumab binds to CD38 on red blood cells (RBCs) and results in a positive Indirect Antiglobulin Test (Indirect Coombs test). Daratumumab-mediated positive indirect antiglobulin test may persist for up to 6 months after the last daratumumab infusion. Daratumumab bound to RBCs masks detection of antibodies to minor antigens in the patient's serum [see References (15)]. The determination of a patient's ABO and Rh blood type are not impacted [see Drug Interactions (7.1)].
Daratumumab binds to CD38 on RBCs and interferes with compatibility testing, including antibody screening and cross matching. Daratumumab interference mitigation methods include treating reagent RBCs with dithiothreitol (DTT) to disrupt daratumumab binding [see References (15)] or genotyping. Since the Kell blood group system is also sensitive to DTT treatment, K-negative units should be supplied after ruling out or identifying alloantibodies using DTT-treated RBCs.

[6] = Storage of diluted DARZALEX solution; assay type: physicochemical
Text: Prepare the solution for infusion using aseptic technique as follows: • Calculate the dose (mg), total volume (mL) of DARZALEX solution required and the number of DARZALEX vials needed based on patient actual body weight. • Check that the DARZALEX solution is colorless to pale yellow. […] Infusion bags/containers must be made of either polyvinylchloride (PVC), polypropylene (PP), polyethylene (PE) or polyolefin blend (PP+PE). Dilute under appropriate aseptic conditions. Discard any unused portion left in the vial. • Gently invert the bag/container to mix the solution. […] The diluted solution may develop very small, translucent to white proteinaceous particles, as daratumumab is a protein. […] (59° F.-77° F.) and in room light. Diluted solution may be kept at room temperature for a maximum of 15 hours (including infusion time). • If not used immediately, the diluted solution can be stored prior to administration for up to 24 hours at refrigerated conditions 2° C.-8° C. (36° F.-46° F.) and protected from light.

NK cells = test: Pharmacodynamics, NK cell counts; assay type: in vivo, human; conditions: peripheral whole blood and bone marrow
Text: NK cells express CD38 and are susceptible to daratumumab mediated cell lysis.

[7] = Clinical pharmacokinetic drug-drug interaction assessments; conditions: human, in vivo
[8] = system: multiple myeloma, prior PI and immunomodulatory agent; test: EQUULEUS (NCT01998971) open-label trial, DARZALEX with pomalidomide and dexamethasone
Protocol: In [sequence], patients receiving daratumumab combination treatment (n=97) were administered the first 16 mg/kg daratumumab dose at Week 1 split over two days i.e. 8 mg/kg on Day 1 and Day 2 respectively.
Pomalidomide (4 mg once daily orally on Days 1-21 of repeated 28-day [4-week] cycles) was given with low dose oral or intravenous dexamethasone 40 mg/week (reduced dose of 20 mg/week for patients>75 years or BMI<18.5).
The median patient age was 64 years (range: 35 to 86 years) with 8% of patients≥75 years of age. Patients in the study had received a median of 4 prior lines of therapy. Seventy-four percent (74%) of patients had received prior ASCT. Ninety-eight percent (98%) of patients received prior bortezomib treatment, and 33% of patients received prior carfilzomib. All patients received prior lenalidomide treatment, with 98% of patients previously treated with the combination of bortezomib and lenalidomide. Eighty nine percent (89%) of patients were refractory to lenalidomide and 71% refractory to bortezomib; 64% of patients were refractory to bortezomib and lenalidomide.

DARZALEX: IgG1κ human monoclonal antibody against CD38, HC SEQ ID NO: 9 and LC SEQ ID NO: 10
Serious adverse reactions ([1]; 16 mg/kg monotherapy): 33%
Arthralgia, Any Grade ([1]; human, in vivo): 17%
Arthralgia, Grade 3 ([1]; human, in vivo): 0%
Arthralgia, Grade 4 ([1]; human, in vivo): 0%
Back pain, Any Grade ([1]; human, in vivo): 23%
Back pain, Grade 3 ([1]; human, in vivo): 2%
Back pain, Grade 4 ([1]; human, in vivo): 0%
Chills, Any Grade ([1]; human, in vivo): 10%
Chills, Grade 3 ([1]; human, in vivo): 0%
Chills, Grade 4 ([1]; human, in vivo): 0%
Constipation, Any Grade ([1]; human, in vivo): 15%
Constipation, Grade 3 ([1]; human, in vivo): 0%
Constipation, Grade 4 ([1]; human, in vivo): 0%
Cough, Any Grade ([1]; human, in vivo): 21%
Cough, Grade 3 ([1]; human, in vivo): 0%
Cough, Grade 4 ([1]; human, in vivo): 0%
Decreased appetite, Any Grade ([1]; human, in vivo): 15%
Decreased appetite, Grade 3 ([1]; human, in vivo): 1%
Decreased appetite, Grade 4 ([1]; human, in vivo): 0%
Diarrhea, Any Grade ([1]; human, in vivo): 16%
Diarrhea, Grade 3 ([1]; human, in vivo): 1%
Diarrhea, Grade 4 ([1]; human, in vivo): 0%
Dyspnea, Any Grade ([1]; human, in vivo): 15%
Dyspnea, Grade 3 ([1]; human, in vivo): 1%
Dyspnea, Grade 4 ([1]; human, in vivo): 0%
Fatigue, Any Grade ([1]; human, in vivo): 39%
Fatigue, Grade 3 ([1]; human, in vivo): 2%
Fatigue, Grade 4 ([1]; human, in vivo): 0%
Headache, Any Grade ([1]; human, in vivo): 12%
Headache, Grade 3 ([1]; human, in vivo): 1%
Headache, Grade 4 ([1]; human, in vivo): 0%
Hypertension, Any Grade ([1]; human, in vivo): 10%
Hypertension, Grade 3 ([1]; human, in vivo): 5%
Hypertension, Grade 4 ([1]; human, in vivo): 0%
Infusion reaction, Any Grade ([1]; human, in vivo): 48%
Infusion reaction, Grade 3 ([1]; human, in vivo): 3%
Infusion reaction, Grade 4 ([1]; human, in vivo): 0%
Musculoskeletal chest pain, Any Grade ([1]; human, in vivo): 12%
Musculoskeletal chest pain, Grade 3 ([1]; human, in vivo): 1%
Musculoskeletal chest pain, Grade 4 ([1]; human, in vivo): 0%
Nasal congestion, Any Grade ([1]; human, in vivo): 17%
Nasal congestion, Grade 3 ([1]; human, in vivo): 0%
Nasal congestion, Grade 4 ([1]; human, in vivo): 0%
Nasopharyngitis, Any Grade ([1]; human, in vivo): 15%
Nasopharyngitis, Grade 3 ([1]; human, in vivo): 0%
Nasopharyngitis, Grade 4 ([1]; human, in vivo): 0%
Nausea, Any Grade ([1]; human, in vivo): 27%
Nausea, Grade 3 ([1]; human, in vivo): 0%
Nausea, Grade 4 ([1]; human, in vivo): 0%
Pain in extremity, Any Grade ([1]; human, in vivo): 15%
Pain in extremity, Grade 3 ([1]; human, in vivo): 1%
Pain in extremity, Grade 4 ([1]; human, in vivo): 0%
Pneumonia, Any Grade ([1]; human, in vivo): 11%
Pneumonia, Grade 3 ([1]; human, in vivo): 6%
Pneumonia, Grade 4 ([1]; human, in vivo): 0%
Pyrexia, Any Grade ([1]; human, in vivo): 21%
Pyrexia, Grade 3 ([1]; human, in vivo): 1%
Pyrexia, Grade 4 ([1]; human, in vivo): 0%
Serious adverse reaction, general physical health deterioration ([1]; human, in vivo): 3%
Serious adverse reaction, pneumonia ([1]; human, in vivo): 6%
Serious adverse reaction, pyrexia ([1]; human, in vivo): 3%
Upper respiratory tract infection, Any Grade ([1]; human, in vivo): 20%
Upper respiratory tract infection, Grade 3 ([1]; human, in vivo): 1%
Upper respiratory tract infection, Grade 4 ([1]; human, in vivo): 0%
Vomiting, Any Grade ([1]; human, in vivo): 14%
Vomiting, Grade 3 ([1]; human, in vivo): 0%
Vomiting, Grade 4 ([1]; human, in vivo): 0%
discontinuations due to adverse reactions ([1]; human, in vivo): 4%
treatment delay due to adverse reactions ([1]; human, in vivo): 15%
Anemia, Any Grade ([1]; lab abnormality): 45%
Anemia, Grade 3 ([1]; lab abnormality): 19%
Anemia, Grade 4 ([1]; lab abnormality): 0%
Lymphopenia, Any Grade ([1]; lab abnormality): 72%
Lymphopenia, Grade 3 ([1]; lab abnormality): 30%
Lymphopenia, Grade 4 ([1]; lab abnormality): 10%
Neutropenia, Any Grade ([1]; lab abnormality): 60%
Neutropenia, Grade 3 ([1]; lab abnormality): 17%
Neutropenia, Grade 4 ([1]; lab abnormality): 3%
Thrombocytopenia, Any Grade ([1]; lab abnormality): 48%
Thrombocytopenia, Grade 3 ([1]; lab abnormality): 10%
Thrombocytopenia, Grade 4 ([1]; lab abnormality): 8%
Overall response rate (ORR) ([2]; Independent Review Committee, IMWG criteria): 31 (29.2%)
Complete response (CR) ([2]; in vivo): 0
Partial response (PR) ([2]; in vivo): 18 (17.0%)
Stringent complete response (sCR) ([2]; in vivo): 3 (2.8%)
Very good partial response (VGPR) ([2]; in vivo): 10 (9.4%)
median duration of response ([2]; in vivo): 7.4 months
median time to response ([2]; in vivo): 1 month
Overall response rate ([3]; 16 mg/kg, 42 patients): 36%
number of CR ([3]; 16 mg/kg, 42 patients): 1
number of VGPR ([3]; 16 mg/kg, 42 patients): 3
median duration of response ([3]; in vivo): not estimable
median time to response ([3]; in vivo): 1 month
Grade 3/4 infusion reaction at Week 2 or subsequent infusions (multiple myeloma; human, in vivo): Less than 1%
incidence of any grade infusion reactions, Week 2 infusion (multiple myeloma; human, in vivo): 2%
incidence of any grade infusion reactions, first (16 mg/kg, Week 1) infusion (multiple myeloma; human, in vivo): 37%
incidence of any grade infusion reactions, subsequent infusions (cumulative) (multiple myeloma; human, in vivo): 6%
time after completing infusion within which nearly all reactions occurred (multiple myeloma; human, in vivo): ≤ 4 h
patients who experienced an infusion reaction (multiple myeloma; in clinical trials): approximately half
time after infusion at which infusion reactions occurred (multiple myeloma; prior to the introduction of post-infusion medication): up to 48 hours
transient neutralizing antibodies against daratumumab ([4]; combination therapy): One patient
patients positive for anti-daratumumab antibodies ([4]; of the 1,050 evaluable combination therapy patients): 2
mean serum Cmax at end of weekly dosing compared to first dose ([5]; approved recommended dosage, monotherapy or combination): 2.7 to 3 fold
Terminal half-life ([5]; combination therapy vs monotherapy): similar
trough serum concentration (Cmin) at end of weekly dosing, mean±SD ([5]; monotherapy): 573 ± 332 µg/mL
linear clearance, mean±SD ([5]; monotherapy, estimated): 171.4 ± 95.3 mL/day
terminal half-life associated with linear clearance, mean±SD ([5]; monotherapy, estimated): 18 ± 9 days
pharmacokinetics in specific populations ([5]; sex, age, mild and moderate hepatic impairment, renal impairment): No clinically significant differences
persistence of positive indirect antiglobulin test after the last infusion (CD38 on red blood cells): up to 6 months
time diluted solution can be stored refrigerated ([6]; 2-8 °C, protected from light): up to 24 hours
time diluted solution may be kept at room temperature ([6]; 15-25 °C, including infusion time): ≤ 15 h
absolute counts and percentages of total and activated NK cells (NK cells): Decreases
drug-drug interactions with lenalidomide, pomalidomide, bortezomib and dexamethasone [7]: no clinically relevant drug-drug interactions
incidence of any grade infusion-related reactions ([8]; combination treatment (n=97), first 16 mg/kg dose split over two days): 42%
infusion reactions on Day 2 of Week 1 ([8]; split first dose): 4%
infusion reactions with subsequent infusions ([8]; split first dose): 8%
